Experimental data as given in patent US20120042415A1.

Molecular target: wild type pokeweed antiviral protein (PAP) (pokeweed) (UniProt P10297)
Experiment: cell-based or functional assay

Chain of UniProt P10297 (P10297 23-285 limits assumed): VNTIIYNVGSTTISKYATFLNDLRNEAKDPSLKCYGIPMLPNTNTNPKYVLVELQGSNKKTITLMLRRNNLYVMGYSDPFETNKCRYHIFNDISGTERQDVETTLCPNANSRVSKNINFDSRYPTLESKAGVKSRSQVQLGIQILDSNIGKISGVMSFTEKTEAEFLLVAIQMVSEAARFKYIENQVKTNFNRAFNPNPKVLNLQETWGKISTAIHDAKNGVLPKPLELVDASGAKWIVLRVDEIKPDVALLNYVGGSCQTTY

Substance: yeast wild type ribosomal protein L3 (full length) (from UniProt P14126 1-387)
- transformation frequency of tobacco with L3+PAP (NT243): 24%
